Values quoted from earlier work, collected in paper PMC12455044.

Target: thrombin (Homo sapiens) (UniProt P00734)

Kd: 10 nM
Substance: PAR-1 (from UniProt P25116)
